# Measurements taken from paper PMC3163439 (Molecular cell, 2009).
# Legend:
# BAX, in vitro translated [1] = molecular target: BAX, in vitro translated (UniProt Q07813); test: co-IP
# BAX, in vitro translated [2] = molecular target: BAX, in vitro translated (UniProt Q07813 1-192); test: co-IP
# Sequence of BAX, in vitro translated (UniProt Q07813 1-192) (Q07813 whole entry): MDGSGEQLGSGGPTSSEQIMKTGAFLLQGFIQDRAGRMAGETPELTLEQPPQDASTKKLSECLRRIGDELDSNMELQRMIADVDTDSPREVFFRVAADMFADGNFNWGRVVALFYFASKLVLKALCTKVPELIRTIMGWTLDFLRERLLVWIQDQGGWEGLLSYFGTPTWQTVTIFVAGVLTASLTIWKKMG
# Sequence of BAX, in vitro translated (UniProt Q07813) (Q07813 whole entry): as above
# Sequence of truncated BID (tBID), in vitro translated (domain or fragment) (P70444 whole entry, the tested form may be a part): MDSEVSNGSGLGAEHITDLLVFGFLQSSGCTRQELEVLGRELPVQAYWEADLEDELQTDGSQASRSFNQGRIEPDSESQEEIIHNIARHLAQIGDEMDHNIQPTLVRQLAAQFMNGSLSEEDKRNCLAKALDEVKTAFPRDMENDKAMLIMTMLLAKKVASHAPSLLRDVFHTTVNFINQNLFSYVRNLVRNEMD
"stoichiometry N (BAX, in vitro translated [1])","stoichiometry N (BAX, in vitro translated [2])",Molecule
1,,"truncated BID (tBID), in vitro translated (domain or fragment)"
,~1,"PUMA, in vitro translated (natural protein, UniProt Q99ML1 1-193, looked up) MARARQEGSSPEPVEGLARDSPRPFPLGRLMPSAVSCSLCEPGLPAAPAAPALLPAAYLCAPTAPPAVTAALGGPRWPGGHRSRPRGPRPDGPQPSLSPAQQHLESPVPSAPEALAGGPTQAAPGVRVEEEEWAREIGAQLRRMADDLNAQYERRRQEEQHRHRPSPWRVMYNLFMGLLPLPRDPGAPEMEPN"
,~1,"BIM, in vitro translated (natural protein, UniProt O54918 1-196, looked up) MAKQPSDVSSECDREGGQLQPAERPPQLRPGAPTSLQTEPQGNPDGEGDRCPHGSPQGPLAPPASPGPFATRSPLFIFVRRSSLLSRSSSGYFSFDTDRSPAPMSCDKSTQTPSPPCQAFNHYLSAMASIRQSQEEPEDLRPEIRIAQELRRIGDEFNETYTRRVFANDYREAEDHPQMVILQLLRFIFRLVWRRH"
